# Results published in patent US10414796.
# B1: papain (protein)
# chain: IPEYVDWRQKGAVTPVKNQGSCGSCWAFSAVVTIEGIIKIRTGNLNEYSEQELLDCDRRSYGCNGGYPWSALQLVAQYGIHYRNTYPYEGVQRYCRSREKGPYAAKTDGVRQVQPYNEGALLYSIANQPVSVVLEAAGKDFQLYRGGIFVGPCGNKVDHAVAAVGYGPNYILIKNSWGTGWGENGYIRIKRGTGNSYGVCGLYTSSFYPVKN
# How the values were obtained:
# [1] = target: heterologous livipeptin fraction 2.2HET (HPLC fraction at 2.2 minutes from E. coli transformed with pALVP)
# [2] = target: T1, heterologous livipeptin fraction 4.4HET (HPLC fraction at 4.4 minutes from E. coli transformed with pALVP)
# T1 chain: FR
# [3] = target: heterologous livipeptin fraction 4.2HET (HPLC fraction at 4.2 minutes from E. coli transformed with pALVP)
protein,measurement,setting,value
B1,anti-proteolytic activity (enzymatic assay),[1],"The anti-proteolytic activity of fractions 2.2, 4.2 and 4.4HET was confirmed through the enzymatic assay described previously, resulting active against papain"
same,anti-proteolytic activity (enzymatic assay),[2],"The anti-proteolytic activity of fractions 2.2, 4.2 and 4.4HET was confirmed through the enzymatic assay described previously, resulting active against papain"
same,anti-proteolytic activity (enzymatic assay),[3],"The anti-proteolytic activity of fractions 2.2, 4.2 and 4.4HET was confirmed through the enzymatic assay described previously, resulting active against papain"
